Laboratory results taken from patent US20210032299A1 (Eli Lilly, published 2021).
Starred links: 1 amine or outer side, 2 acyl side, 3 side chain; linkers in the order of their positions; H or OH if unused. Non-standard residues stand in square brackets, D forms with d. Groups on a side chain read outwards from the residue. No end group written: not given here. *: point of attachment. C20 diacid = O=C(O)CCCCCCCCCCCCCCCCCCC(=O)*; γGlu = O=C(O)[C@H](CCC(=O)[*:2])N[*:1]; 4Pal = N[C@@H](Cc1ccncc1)C(=O)O; αMeL = CC(C)C[C@](C)(N)C(=O)O; AEEA = NCCOCCOCC(=O)O; Aib = CC(C)(N)C(=O)O

Columns and labels:
Assay in all cases: cell-based or functional assay
[1] = biological target: T1, human glucose-dependent insulinotropic peptide receptor (human, UniProt P48546 22-466)
T1 sequence (looked up): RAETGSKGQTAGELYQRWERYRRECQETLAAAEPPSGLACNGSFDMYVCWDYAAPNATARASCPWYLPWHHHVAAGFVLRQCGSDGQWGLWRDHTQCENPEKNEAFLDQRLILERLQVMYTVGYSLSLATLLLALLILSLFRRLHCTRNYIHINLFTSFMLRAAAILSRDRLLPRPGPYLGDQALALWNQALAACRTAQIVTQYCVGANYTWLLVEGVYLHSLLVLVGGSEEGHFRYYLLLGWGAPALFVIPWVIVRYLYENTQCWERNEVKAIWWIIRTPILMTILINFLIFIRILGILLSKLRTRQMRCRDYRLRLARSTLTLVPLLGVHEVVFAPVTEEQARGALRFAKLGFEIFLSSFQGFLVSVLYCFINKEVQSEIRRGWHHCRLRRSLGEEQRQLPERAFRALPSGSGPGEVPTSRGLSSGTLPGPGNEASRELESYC

[2] = biological target: human GLP-1 receptor (human, UniProt P43220 24-463)
[3] = biological target: human glucagon receptor (human, UniProt P47871 26-477)
Chain of human glucagon receptor (P47871 26-477): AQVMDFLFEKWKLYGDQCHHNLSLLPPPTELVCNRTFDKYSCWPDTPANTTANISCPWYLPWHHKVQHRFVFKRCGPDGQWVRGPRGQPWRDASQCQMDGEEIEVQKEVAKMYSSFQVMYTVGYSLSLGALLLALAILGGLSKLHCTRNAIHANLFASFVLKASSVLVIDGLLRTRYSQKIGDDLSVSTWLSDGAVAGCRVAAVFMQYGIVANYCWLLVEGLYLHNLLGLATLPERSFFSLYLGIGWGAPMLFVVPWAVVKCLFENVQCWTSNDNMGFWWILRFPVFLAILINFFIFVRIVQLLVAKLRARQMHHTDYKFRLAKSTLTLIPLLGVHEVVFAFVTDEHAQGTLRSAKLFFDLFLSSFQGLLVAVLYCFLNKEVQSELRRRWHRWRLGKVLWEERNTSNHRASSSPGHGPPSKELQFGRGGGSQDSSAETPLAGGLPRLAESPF

B1: Example 70 (peptide)
peptide: Y[Aib]EGTFISDYSI[αMeL]LDKK([AEEA-AEEA-γGlu-C20 diacid])HQ[Aib]DFVE[4Pal]LLATGPSSGAPPPS-NH2
modifications: N-terminus assumed
SMILES: CC[C@H](C)[C@H](NC(=O)[C@H](Cc1ccccc1)NC(=O)[C@@H](NC(=O)CNC(=O)[C@H](CCC(=O)O)NC(=O)C(C)(C)NC(=O)[C@@H](N)Cc1ccc(O)cc1)[C@@H](C)O)C(=O)N[C@@H](CO)C(=O)N[C@@H](CC(=O)O)C(=O)N[C@@H](Cc1ccc(O)cc1)C(=O)N[C@@H](CO)C(=O)N[C@H](C(=O)N[C@@](C)(CC(C)C)C(=O)N[C@@H](CC(C)C)C(=O)N[C@@H](CC(=O)O)C(=O)N[C@@H](CCCCN)C(=O)N[C@@H](CCCCNC(=O)COCCOCCNC(=O)COCCOCCNC(=O)CC[C@H](NC(=O)CCCCCCCCCCCCCCCCCCC(=O)O)C(=O)O)C(=O)N[C@@H](Cc1c[nH]cn1)C(=O)N[C@@H](CCC(N)=O)C(=O)NC(C)(C)C(=O)N[C@@H](CC(=O)O)C(=O)N[C@@H](Cc1ccccc1)C(=O)N[C@H](C(=O)N[C@@H](CCC(=O)O)C(=O)N[C@@H](Cc1ccncc1)C(=O)N[C@@H](CC(C)C)C(=O)N[C@@H](CC(C)C)C(=O)N[C@@H](C)C(=O)N[C@H](C(=O)NCC(=O)N1CCC[C@H]1C(=O)N[C@@H](CO)C(=O)N[C@@H](CO)C(=O)NCC(=O)N[C@@H](C)C(=O)N1CCC[C@H]1C(=O)N1CCC[C@H]1C(=O)N1CCC[C@H]1C(=O)N[C@@H](CO)C(N)=O)[C@@H](C)O)C(C)C)[C@@H](C)CC
[1]
  hGIPR cAMP Rel EC50: 0.0254 nM
[2]
  hGLP1R cAMP Rel EC50: > 5 µM
[3]
  hGcgR cAMP Rel EC50: 3.56 µM

B2: Example 67 (peptide)
peptide: Y[Aib]EGTFISDYSI[αMeL]LDKK([AEEA-AEEA-γGlu-C20 diacid])HQ[Aib]DFVEYLLEQGPSSGAPPPS-NH2
modifications: N-terminus assumed
SMILES: CC[C@H](C)[C@H](NC(=O)[C@H](Cc1ccccc1)NC(=O)[C@@H](NC(=O)CNC(=O)[C@H](CCC(=O)O)NC(=O)C(C)(C)NC(=O)[C@@H](N)Cc1ccc(O)cc1)[C@@H](C)O)C(=O)N[C@@H](CO)C(=O)N[C@@H](CC(=O)O)C(=O)N[C@@H](Cc1ccc(O)cc1)C(=O)N[C@@H](CO)C(=O)N[C@H](C(=O)N[C@@](C)(CC(C)C)C(=O)N[C@@H](CC(C)C)C(=O)N[C@@H](CC(=O)O)C(=O)N[C@@H](CCCCN)C(=O)N[C@@H](CCCCNC(=O)COCCOCCNC(=O)COCCOCCNC(=O)CC[C@H](NC(=O)CCCCCCCCCCCCCCCCCCC(=O)O)C(=O)O)C(=O)N[C@@H](Cc1c[nH]cn1)C(=O)N[C@@H](CCC(N)=O)C(=O)NC(C)(C)C(=O)N[C@@H](CC(=O)O)C(=O)N[C@@H](Cc1ccccc1)C(=O)N[C@H](C(=O)N[C@@H](CCC(=O)O)C(=O)N[C@@H](Cc1ccc(O)cc1)C(=O)N[C@@H](CC(C)C)C(=O)N[C@@H](CC(C)C)C(=O)N[C@@H](CCC(=O)O)C(=O)N[C@@H](CCC(N)=O)C(=O)NCC(=O)N1CCC[C@H]1C(=O)N[C@@H](CO)C(=O)N[C@@H](CO)C(=O)NCC(=O)N[C@@H](C)C(=O)N1CCC[C@H]1C(=O)N1CCC[C@H]1C(=O)N1CCC[C@H]1C(=O)N[C@@H](CO)C(N)=O)C(C)C)[C@@H](C)CC
[1]
  hGIPR cAMP Rel EC50: 0.0627 nM
[2]
  hGLP1R cAMP Rel EC50: > 5 µM
[3]
  hGcgR cAMP Rel EC50: > 5 µM

B3: Example 69 (peptide)
peptide: Y[Aib]EGTFISDYSI[αMeL]LDKK([AEEA-AEEA-γGlu-C20 diacid])HQ[Aib]DFVEYLLEGGPSSGAPPPS-NH2
modifications: N-terminus assumed
SMILES: CC[C@H](C)[C@H](NC(=O)[C@H](Cc1ccccc1)NC(=O)[C@@H](NC(=O)CNC(=O)[C@H](CCC(=O)O)NC(=O)C(C)(C)NC(=O)[C@@H](N)Cc1ccc(O)cc1)[C@@H](C)O)C(=O)N[C@@H](CO)C(=O)N[C@@H](CC(=O)O)C(=O)N[C@@H](Cc1ccc(O)cc1)C(=O)N[C@@H](CO)C(=O)N[C@H](C(=O)N[C@@](C)(CC(C)C)C(=O)N[C@@H](CC(C)C)C(=O)N[C@@H](CC(=O)O)C(=O)N[C@@H](CCCCN)C(=O)N[C@@H](CCCCNC(=O)COCCOCCNC(=O)COCCOCCNC(=O)CC[C@H](NC(=O)CCCCCCCCCCCCCCCCCCC(=O)O)C(=O)O)C(=O)N[C@@H](Cc1c[nH]cn1)C(=O)N[C@@H](CCC(N)=O)C(=O)NC(C)(C)C(=O)N[C@@H](CC(=O)O)C(=O)N[C@@H](Cc1ccccc1)C(=O)N[C@H](C(=O)N[C@@H](CCC(=O)O)C(=O)N[C@@H](Cc1ccc(O)cc1)C(=O)N[C@@H](CC(C)C)C(=O)N[C@@H](CC(C)C)C(=O)N[C@@H](CCC(=O)O)C(=O)NCC(=O)NCC(=O)N1CCC[C@H]1C(=O)N[C@@H](CO)C(=O)N[C@@H](CO)C(=O)NCC(=O)N[C@@H](C)C(=O)N1CCC[C@H]1C(=O)N1CCC[C@H]1C(=O)N1CCC[C@H]1C(=O)N[C@@H](CO)C(N)=O)C(C)C)[C@@H](C)CC
[1]
  hGIPR cAMP Rel EC50: 0.0302 nM
[2]
  hGLP1R cAMP Rel EC50: > 5 µM
[3]
  hGcgR cAMP Rel EC50: 0.803 µM

B4: Example 68 (peptide)
peptide: Y[Aib]EGTFISDYSI[αMeL]LDKK([AEEA-AEEA-γGlu-C20 diacid])HQ[Aib]DFVEYLLEAGPSSGAPPPS-NH2
modifications: N-terminus assumed
SMILES: CC[C@H](C)[C@H](NC(=O)[C@H](Cc1ccccc1)NC(=O)[C@@H](NC(=O)CNC(=O)[C@H](CCC(=O)O)NC(=O)C(C)(C)NC(=O)[C@@H](N)Cc1ccc(O)cc1)[C@@H](C)O)C(=O)N[C@@H](CO)C(=O)N[C@@H](CC(=O)O)C(=O)N[C@@H](Cc1ccc(O)cc1)C(=O)N[C@@H](CO)C(=O)N[C@H](C(=O)N[C@@](C)(CC(C)C)C(=O)N[C@@H](CC(C)C)C(=O)N[C@@H](CC(=O)O)C(=O)N[C@@H](CCCCN)C(=O)N[C@@H](CCCCNC(=O)COCCOCCNC(=O)COCCOCCNC(=O)CC[C@H](NC(=O)CCCCCCCCCCCCCCCCCCC(=O)O)C(=O)O)C(=O)N[C@@H](Cc1c[nH]cn1)C(=O)N[C@@H](CCC(N)=O)C(=O)NC(C)(C)C(=O)N[C@@H](CC(=O)O)C(=O)N[C@@H](Cc1ccccc1)C(=O)N[C@H](C(=O)N[C@@H](CCC(=O)O)C(=O)N[C@@H](Cc1ccc(O)cc1)C(=O)N[C@@H](CC(C)C)C(=O)N[C@@H](CC(C)C)C(=O)N[C@@H](CCC(=O)O)C(=O)N[C@@H](C)C(=O)NCC(=O)N1CCC[C@H]1C(=O)N[C@@H](CO)C(=O)N[C@@H](CO)C(=O)NCC(=O)N[C@@H](C)C(=O)N1CCC[C@H]1C(=O)N1CCC[C@H]1C(=O)N1CCC[C@H]1C(=O)N[C@@H](CO)C(N)=O)C(C)C)[C@@H](C)CC
[1]
  hGIPR cAMP Rel EC50: 0.0768 nM
[2]
  hGLP1R cAMP Rel EC50: > 5 µM
[3]
  hGcgR cAMP Rel EC50: 3.03 µM
